The results in this text go back to PMC2172684 (The Journal of Cell Biology, 2003).

The labels stand for the following.
B1: importin β (304–876) F688A (domain or fragment, human, UniProt Q14974 304-876, looked up)
chain: GRPPEHTSKFYAKGALQYLVPILTQTLTKQDENDDDDDWNPCKAAGVCLMLLATCCEDDIVPHVLPFIKEHIKNPDWRYRDAAVMAFGCILEGPEPSQLKPLVIQAMPTLIELMKDPSVVVRDTAAWTVGRICELLPEAAINDVYLAPLLQCLIEGLSAEPRVASNVCWAFSSLAEAAYEAADVADDQEEPATYCLSSSFELIVQKLLETTDRPDGHQNNLRSSAYESLMEIVKNSAKDCYPAVQKTTLVIMERLQQVLQMESHIQSTSDRIQFNDLQSLLCATLQNVLRKVQHQDALQISDVVMASLLRMFQSTAGSGGVQEDALMAVSTLVEVLGGEFLKYMEAFKPFLGIGLKNYAEYQVCLAAVGLVGDLCRALQSNIIPACDEVMQLLLENLGNENVHRSVKPQILSVFGDIALAIGGEFKKYLEVVLNTLQQASQAQVDKSDYDMVDYLNELRESCLEAYTGIVQGLKGDQENVHPDVMLVQPRVEFILSFIDHIAGDEDHTDGVVACAAGLIGDLCTAFGKDVLKLVEARPMIHELLTEGRRSKTNKAKTLATWATKELRKLKNQA
B2: GST-tagged Nup153 (895–1475) (domain or fragment, UniProt P49790 895-1475, looked up)
chain: SNSAASSSFKFGVSSSSSGPSQTLTSTGNFKFGDQGGFKIGVSSDSGSINPMSEGFKFSKPIGDFKFGVSSESKPEEVKKDSKNDNFKFGLSSGLSNPVSLTPFQFGVSNLGQEEKKEELPKSSSAGFSFGTGVINSTPAPANTIVTSENKSSFNLGTIETKSASVAPFTCKTSEAKKEEMPATKGGFSFGNVEPASLPSASVFVLGRTEEKQQEPVTSTSLVFGKKADNEEPKCQPVFSFGNSEQTKDENSSKSTFSFSMTKPSEKESEQPAKATFAFGAQTSTTADQGAAKPVFSFLNNSSSSSSTPATSAGGGIFGSSTSSSNPPVATFVFGQSSNPVSSSAFGNTAESSTSQSLLFSQDSKLATTSSTGTAVTPFVFGPGASSNNTTTSGFGFGATTTSSSAGSSFVFGTGPSAPSASPAFGANQTPTFGQSQGASQPNPPGFGSISSSTALFPTGSQPAPPTFGTVSSSSQPPVFGQQPSQSAFGSGTTPNSSSAFQFGSSTTNFNFTNNSPSGVFTFGANSSTPAASAQPSGSGGFPFNQSPAAFTVGSNGKNVFSSSGTSFSGRKIKTAVRRRK
B3: importin β m-N/m-C (natural protein)
chain: MELITILEKTVSPDRLELEAAQKFLERAAVENLPTFLVELSRVLANPGNSQVARVAAGLQIKNSLTSKDPDIKAQYQQRWLAIDANARREVKNYVLQTLGTETYRPSSASQCVAGIACAEIPVNQWPELIPQLVANVTNPNSTEHMKESTLEAIGYICQDIDPEQLQDKSNEILTAIAQGMRKEEPSNNVKLAATNALLNSLEFTKANFDKESERHAIMQVVCEATQCPDTRVRVAALQNLVKIMSLYYQYMETAMGPALFARTIEAMKSDIDEVALQGIEFWSNVCDEEMDLAIEASEAAEQGRPPEHTSKFYAKGALQYLVPILTQTLTKQDENDDDDDWNPCKAAGVCLMLLATCCEDDIVPHVLPFIKEHIKNPDWRYRDAAVMAFGCILEGPEPSQLKPLVIQAMPTLIELMKDPSVVVRDTAAWTVGRICELLPEAAINDVYLAPLLQCLIEGLSAEPRVASNVCWAFSSLAEAAYEAADVADDQEEPATYCLSSSFELIVQKLLETTDRPDGHQNNLRSSAYESLMEIVKNSAKDCYPAVQKTTLVIMERLQQVLQMESHIQSTSDRIQFNDLQSLLCATLQNVLRKVQHQDALQISDVVMASLDRMFQSTAGSGGVQEDALMAVSTLVEVLGGEFLKYMEAFKPFLGIGLKNYAEYQVCLAAVGLVGDLCRALQSNIIPACDEVMQLLLENLGNENVHRSVKPQILSVFGDIALAIGGEFKKYLEVVLNTLQQASQAQVDKSDYDMVDYLNELRESCLEAYTGIVQGLKGDQENVHPDVMLVQPRVEFILSFIDHIAGDEDHTDGVVACAAGLIGDLCTAFGKDVLKLVEARPMIHELLTEGRRSKTNKAKTLATWATKELRKLKNQA

Like-named read-outs stand apart in the source and are kept apart here.

Targets include importin β I178A/E214A (human, UniProt Q14974 1-876, I178A | E214A); importin β E214A (human, UniProt Q14974 1-876, E214A); importin β F217A/Y255A (human, UniProt Q14974 1-876, F217A | Y255A); importin β Y255A (human, UniProt Q14974 1-876, Y255A); importin β I178D/Y255A (human, UniProt Q14974 1-876, I178D | Y255A); importin β F217A (human, UniProt Q14974 1-876, F217A); importin β I263R (human, UniProt Q14974 1-876, I263R); importin β I178A (human, UniProt Q14974 1-876, I178A); importin β I178D (human, UniProt Q14974 1-876, I178D); GST–RanGTP (UniProt P62826 1-216).

What all share (test): ELISA
The target of test [1] is B2.
For test [2], the target named is T1, wild-type importin β (human, UniProt Q14974 1-876).
Test [3] has as its target importin β L612D/F688A (m-C) (human, UniProt Q14974 1-876, L612D | F688A).
The target in test [4] is T2, importin β I178A/F217A/Y255A/I263R (m-N) (human, UniProt Q14974 1-876, I178A | F217A | Y255A | I263R).
The target of test [5] is T1, wild-type importin β. The source holds these as a separate data set.
The target in test [6] is T2, importin β I178A/F217A/Y255A/I263R (m-N). This is another data set of the same source.

Regarding B1, in [1], the “fold decrease in affinity against importin β (304–876)” value was around 2 fold.
B2: the Kd with wild-type importin β [2] was 1 ± 0.1 nM; in test [3], 1.2 ± 0.1 nM; in test [4], 91.3 ± 11.8 nM; with wild-type importin β [5], 1.1 ± 0.1 nM; with importin β I178A/E214A, 27 ± 4.1 nM; in the test with importin β E214A it was 1.8 ± 0.1 nM. The Kd with importin β F217A/Y255A was determined as 32.4 ± 5.3 nM; in the test with importin β Y255A it was 3.5 ± 0.3 nM; with importin β I178D/Y255A it was 68.3 ± 9 nM; with importin β F217A it was 2.1 ± 0.2 nM; with importin β I263R, 2.5 ± 0.3 nM; in [6], 99 ± 15.2 nM. Moreover, the results for the Kd with importin β I178A and with importin β I178D were 1.1 ± 0.1 nM and 40.1 ± 9.1 nM, respectively.
B3 displayed a Kd in the test with GST–RanGTP of 4.4 nM.
